Test results published in PMC9482650, “Quantitative fragmentomics allow affinity mapping of interactomes” (Nature Communications, 2022).

T1: SIPA1L2, Q9P2F8
T1 sequence (Q9P2F8 945-1036, limits assumed, looked up): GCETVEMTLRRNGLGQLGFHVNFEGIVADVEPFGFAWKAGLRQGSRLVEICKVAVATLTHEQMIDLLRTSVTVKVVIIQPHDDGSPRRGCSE

T2: DFNB31_1, Q9P202
T2 sequence (Q9P202 135-233, limits assumed, looked up): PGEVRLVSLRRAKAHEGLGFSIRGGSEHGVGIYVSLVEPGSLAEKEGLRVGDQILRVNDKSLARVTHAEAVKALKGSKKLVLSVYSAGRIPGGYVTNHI

T3: ARHGEF11, O15085
T3 sequence (O15085 42-136, limits assumed, looked up): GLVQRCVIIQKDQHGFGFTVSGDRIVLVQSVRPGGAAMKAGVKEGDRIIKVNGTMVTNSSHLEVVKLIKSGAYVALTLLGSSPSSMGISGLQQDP

T4: SNTG2, Q9NY99
T4 sequence (Q9NY99 68-166, limits assumed, looked up): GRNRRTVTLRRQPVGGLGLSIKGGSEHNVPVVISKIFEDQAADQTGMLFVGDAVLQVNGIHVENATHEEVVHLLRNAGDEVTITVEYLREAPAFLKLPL

T5: RADIL, Q96JH8
T5 sequence (Q96JH8 971-1071, limits assumed, looked up): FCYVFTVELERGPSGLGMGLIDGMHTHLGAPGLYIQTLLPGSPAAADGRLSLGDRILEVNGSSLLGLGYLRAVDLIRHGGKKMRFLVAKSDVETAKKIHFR

T6: MPP2, Q14168
T6 sequence (Q14168 180-250, limits assumed, looked up): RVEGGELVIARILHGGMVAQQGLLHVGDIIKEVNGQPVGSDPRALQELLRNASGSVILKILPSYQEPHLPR

T7: GRIP1_3, Q9Y3R0
T7 sequence (Q9Y3R0 247-346, limits assumed, looked up): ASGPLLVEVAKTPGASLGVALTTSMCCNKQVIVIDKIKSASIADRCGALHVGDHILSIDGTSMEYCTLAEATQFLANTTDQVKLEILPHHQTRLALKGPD

T8: LIN7C, Q9NUP9
T8 sequence (Q9NUP9 88-185, limits assumed, looked up): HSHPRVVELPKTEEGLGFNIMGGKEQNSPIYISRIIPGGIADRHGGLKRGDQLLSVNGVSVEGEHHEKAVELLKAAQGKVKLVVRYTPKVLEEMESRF

T9: LNX2_3, Q8N448
T9 sequence (Q8N448 463-564, limits assumed, looked up): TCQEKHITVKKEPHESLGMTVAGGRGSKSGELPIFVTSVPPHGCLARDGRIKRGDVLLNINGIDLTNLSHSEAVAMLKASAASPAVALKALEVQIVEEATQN

T10: DFNB31_2, Q9P202
T10 sequence (Q9P202 274-371, limits assumed, looked up): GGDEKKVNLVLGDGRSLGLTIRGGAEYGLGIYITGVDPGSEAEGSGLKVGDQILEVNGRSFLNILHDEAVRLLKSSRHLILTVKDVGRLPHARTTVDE

T11: TJP3_3, O95049
T11 sequence (O95049 375-456, limits assumed, looked up): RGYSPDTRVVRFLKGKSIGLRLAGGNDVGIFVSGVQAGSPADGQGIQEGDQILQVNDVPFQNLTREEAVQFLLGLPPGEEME

T12: PARD3B_1, Q8TEW8
T12 sequence (Q8TEW8 196-299, limits assumed, looked up): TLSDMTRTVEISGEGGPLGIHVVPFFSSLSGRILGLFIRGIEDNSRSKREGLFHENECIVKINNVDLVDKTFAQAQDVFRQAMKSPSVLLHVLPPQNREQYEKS

B1: FZD2, Q14332 (peptide)
chain: TNSRHGETTV
B2: TRIP6, Q15654 (peptide)
chain: ELSATVTTDC
B3: PLEKHA1, Q9HB21 (peptide)
chain: DDASLPVSDV

Each binder was assayed against GRIP2_7, Q9C0E4 (assay: holdup assay). Details: plain residues with an end cap or a label only (N-terminal biotin on a linker: ado-ado).
Chain of GRIP2_7, Q9C0E4 (Q9C0E4 934-1023): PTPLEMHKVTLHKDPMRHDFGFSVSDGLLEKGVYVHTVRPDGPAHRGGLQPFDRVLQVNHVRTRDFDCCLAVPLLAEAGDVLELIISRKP
Design: key: below the threshold = too weak to quantify, mostly under pKd 3.1 to 4

Binder | pKd
B1 | below the threshold
B2 | below the threshold
B3 | below the threshold

The binders below were run against CASK, O14936 (assay: holdup assay). Details: plain residues with an end cap or a label only (N-terminal biotin on a linker: ado-ado).
Chain of CASK, O14936 (O14936 487-570): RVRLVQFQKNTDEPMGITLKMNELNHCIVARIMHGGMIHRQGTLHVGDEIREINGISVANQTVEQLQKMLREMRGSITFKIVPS
Design: key: below the threshold = too weak to quantify, mostly under pKd 3.1 to 4

Binder | pKd
B1 | below the threshold
B2 | below the threshold
B3 | below the threshold

The binders below were run against T1, SIPA1L2, Q9P2F8 (assay: holdup assay). Details: plain residues with an end cap or a label only (N-terminal biotin on a linker: ado-ado).
Design: key: below the threshold = too weak to quantify, mostly under pKd 3.1 to 4

Binder | pKd
B1 | below the threshold
B2 | below the threshold
B3 | below the threshold

What follows are binders tested against FRMPD3, Q5JV73 (assay: holdup assay). Details: plain residues with an end cap or a label only (N-terminal biotin on a linker: ado-ado).
Chain of FRMPD3, Q5JV73 (Q5JV73 12-100): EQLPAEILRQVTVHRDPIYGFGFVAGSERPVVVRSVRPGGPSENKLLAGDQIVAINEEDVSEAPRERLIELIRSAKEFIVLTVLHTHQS
Design: key: below the threshold = too weak to quantify, mostly under pKd 3.1 to 4

Binder | pKd
B1 | below the threshold
B2 | below the threshold
B3 | below the threshold

The binders below were run against T2, DFNB31_1, Q9P202 (assay: holdup assay). Details: plain residues with an end cap or a label only (N-terminal biotin on a linker: ado-ado).
Design: key: below the threshold = too weak to quantify, mostly under pKd 3.1 to 4

Binder | pKd
B1 | 3.78
B2 | 3.81
B3 | 3.75

These binders were tested against MAGI1_2, Q96QZ7 (assay: holdup assay). Details: plain residues with an end cap or a label only (N-terminal biotin on a linker: ado-ado).
Chain of MAGI1_2, Q96QZ7 (Q96QZ7 456-580): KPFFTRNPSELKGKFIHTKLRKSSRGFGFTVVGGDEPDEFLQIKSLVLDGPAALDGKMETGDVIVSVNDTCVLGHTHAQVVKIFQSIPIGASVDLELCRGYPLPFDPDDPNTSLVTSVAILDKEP
Design: key: below the threshold = too weak to quantify, mostly under pKd 3.1 to 4

Binder | pKd
B1 | 4.2
B2 | below the threshold
B3 | below the threshold

The binders below were run against T3, ARHGEF11, O15085 (assay: holdup assay). Details: plain residues with an end cap or a label only (N-terminal biotin on a linker: ado-ado).
Design: key: below the threshold = too weak to quantify, mostly under pKd 3.1 to 4

Binder | pKd
B1 | 4.07
B2 | 4.61
B3 | 4.22

These binders were tested against T4, SNTG2, Q9NY99 (assay: holdup assay). Details: plain residues with an end cap or a label only (N-terminal biotin on a linker: ado-ado).
Design: key: below the threshold = too weak to quantify, mostly under pKd 3.1 to 4

Binder | pKd
B1 | 4.29
B2 | 3.79
B3 | 4.48

The binders below were run against T5, RADIL, Q96JH8 (assay: holdup assay). Details: plain residues with an end cap or a label only (N-terminal biotin on a linker: ado-ado).
Design: key: below the threshold = too weak to quantify, mostly under pKd 3.1 to 4

Binder | pKd
B1 | 4
B2 | 3.52
B3 | 3.59

The binders below were run against Inadl_5, Q8NI35 (assay: holdup assay). Details: plain residues with an end cap or a label only (N-terminal biotin on a linker: ado-ado).
Chain of Inadl_5, Q8NI35 (Q8NI35 673-780): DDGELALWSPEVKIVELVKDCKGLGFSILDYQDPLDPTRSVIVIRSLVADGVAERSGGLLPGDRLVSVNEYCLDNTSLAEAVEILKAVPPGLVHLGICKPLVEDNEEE
Design: key: below the threshold = too weak to quantify, mostly under pKd 3.1 to 4

Binder | pKd
B1 | below the threshold
B2 | below the threshold
B3 | below the threshold

Each binder was assayed against T6, MPP2, Q14168 (assay: holdup assay). Details: plain residues with an end cap or a label only (N-terminal biotin on a linker: ado-ado).
Design: key: below the threshold = too weak to quantify, mostly under pKd 3.1 to 4

Binder | pKd
B1 | below the threshold
B2 | below the threshold
B3 | below the threshold

These binders were tested against DLG5_1, Q8TDM6 (assay: holdup assay). Details: plain residues with an end cap or a label only (N-terminal biotin on a linker: ado-ado).
Chain of DLG5_1, Q8TDM6 (Q8TDM6 617-713): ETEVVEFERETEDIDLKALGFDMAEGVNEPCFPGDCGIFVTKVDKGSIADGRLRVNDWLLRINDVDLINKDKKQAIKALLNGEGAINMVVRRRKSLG
Design: key: below the threshold = too weak to quantify, mostly under pKd 3.1 to 4

Binder | pKd
B1 | 3.48
B2 | below the threshold
B3 | below the threshold

What follows are binders tested against DLG1_2, Q12959 (assay: holdup assay). Details: plain residues with an end cap or a label only (N-terminal biotin on a linker: ado-ado).
Chain of DLG1_2, Q12959 (Q12959 314-412): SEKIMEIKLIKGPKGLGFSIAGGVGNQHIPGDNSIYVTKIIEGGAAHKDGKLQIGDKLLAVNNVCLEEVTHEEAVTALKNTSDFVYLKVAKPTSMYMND
Design: key: below the threshold = too weak to quantify, mostly under pKd 3.1 to 4

Binder | pKd
B1 | 5.17
B2 | 3.67
B3 | below the threshold

The binders below were run against MAST1, Q9Y2H9 (assay: holdup assay). Details: plain residues with an end cap or a label only (N-terminal biotin on a linker: ado-ado).
Chain of MAST1, Q9Y2H9 (Q9Y2H9 962-1065): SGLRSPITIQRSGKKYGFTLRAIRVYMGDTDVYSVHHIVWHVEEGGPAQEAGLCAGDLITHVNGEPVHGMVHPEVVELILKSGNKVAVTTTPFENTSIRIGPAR
Design: key: below the threshold = too weak to quantify, mostly under pKd 3.1 to 4

Binder | pKd
B1 | below the threshold
B2 | 3.63
B3 | 3.96

These binders were tested against T7, GRIP1_3, Q9Y3R0 (assay: holdup assay). Details: plain residues with an end cap or a label only (N-terminal biotin on a linker: ado-ado).
Design: key: below the threshold = too weak to quantify, mostly under pKd 3.1 to 4

Binder | pKd
B1 | below the threshold
B2 | below the threshold
B3 | below the threshold

Each binder was assayed against GIPC2, Q8TF65 (assay: holdup assay). Details: plain residues with an end cap or a label only (N-terminal biotin on a linker: ado-ado).
Chain of GIPC2, Q8TF65 (Q8TF65 112-203): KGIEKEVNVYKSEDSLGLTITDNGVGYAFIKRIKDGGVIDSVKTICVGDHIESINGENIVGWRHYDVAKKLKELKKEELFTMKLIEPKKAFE
Design: key: below the threshold = too weak to quantify, mostly under pKd 3.1 to 4

Binder | pKd
B1 | 4.22
B2 | below the threshold
B3 | below the threshold

The binders below were run against T8, LIN7C, Q9NUP9 (assay: holdup assay). Details: plain residues with an end cap or a label only (N-terminal biotin on a linker: ado-ado).
Design: key: below the threshold = too weak to quantify, mostly under pKd 3.1 to 4

Binder | pKd
B1 | 4.6
B2 | below the threshold
B3 | 4.01

Each binder was assayed against MAGI2_4, Q86UL8 (assay: holdup assay). Details: plain residues with an end cap or a label only (N-terminal biotin on a linker: ado-ado).
Chain of MAGI2_4, Q86UL8 (Q86UL8 772-865): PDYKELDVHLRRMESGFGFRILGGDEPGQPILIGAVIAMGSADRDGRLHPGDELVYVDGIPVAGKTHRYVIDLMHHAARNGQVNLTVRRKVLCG
Design: key: below the threshold = too weak to quantify, mostly under pKd 3.1 to 4

Binder | pKd
B1 | 4.1
B2 | below the threshold
B3 | below the threshold

The binders below were run against TJP1_2, Q07157 (assay: holdup assay). Details: plain residues with an end cap or a label only (N-terminal biotin on a linker: ado-ado).
Chain of TJP1_2, Q07157 (Q07157 181-274): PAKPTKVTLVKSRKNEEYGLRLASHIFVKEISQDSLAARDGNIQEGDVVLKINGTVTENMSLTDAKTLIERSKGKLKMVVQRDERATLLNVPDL
Design: key: below the threshold = too weak to quantify, mostly under pKd 3.1 to 4

Binder | pKd
B1 | below the threshold
B2 | 4.06
B3 | below the threshold

These binders were tested against T9, LNX2_3, Q8N448 (assay: holdup assay). Details: plain residues with an end cap or a label only (N-terminal biotin on a linker: ado-ado).
Design: key: below the threshold = too weak to quantify, mostly under pKd 3.1 to 4

Binder | pKd
B1 | below the threshold
B2 | below the threshold
B3 | below the threshold

These binders were tested against T10, DFNB31_2, Q9P202 (assay: holdup assay). Details: plain residues with an end cap or a label only (N-terminal biotin on a linker: ado-ado).
Design: key: below the threshold = too weak to quantify, mostly under pKd 3.1 to 4

Binder | pKd
B1 | below the threshold
B2 | below the threshold
B3 | below the threshold

These binders were tested against T11, TJP3_3, O95049 (assay: holdup assay). Details: plain residues with an end cap or a label only (N-terminal biotin on a linker: ado-ado).
Design: key: below the threshold = too weak to quantify, mostly under pKd 3.1 to 4

Binder | pKd
B1 | below the threshold
B2 | below the threshold
B3 | below the threshold

The binders below were run against MAGI2_2, Q86UL8 (assay: holdup assay). Details: plain residues with an end cap or a label only (N-terminal biotin on a linker: ado-ado).
Chain of MAGI2_2, Q86UL8 (Q86UL8 410-522): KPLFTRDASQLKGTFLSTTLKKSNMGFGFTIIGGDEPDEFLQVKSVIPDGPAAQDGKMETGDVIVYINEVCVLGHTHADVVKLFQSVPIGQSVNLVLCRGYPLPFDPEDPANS
Design: key: below the threshold = too weak to quantify, mostly under pKd 3.1 to 4

Binder | pKd
B1 | 4.59
B2 | below the threshold
B3 | below the threshold

What follows are binders tested against TJP2_1, Q9UDY2 (assay: holdup assay). Details: plain residues with an end cap or a label only (N-terminal biotin on a linker: ado-ado).
Chain of TJP2_1, Q9UDY2 (Q9UDY2 24-128): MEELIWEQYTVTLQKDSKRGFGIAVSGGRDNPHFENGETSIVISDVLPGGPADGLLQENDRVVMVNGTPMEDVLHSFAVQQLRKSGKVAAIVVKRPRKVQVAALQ
Design: key: below the threshold = too weak to quantify, mostly under pKd 3.1 to 4

Binder | pKd
B1 | below the threshold
B2 | below the threshold
B3 | below the threshold

The binders below were run against T12, PARD3B_1, Q8TEW8 (assay: holdup assay). Details: plain residues with an end cap or a label only (N-terminal biotin on a linker: ado-ado).
Design: key: below the threshold = too weak to quantify, mostly under pKd 3.1 to 4

Binder | pKd
B1 | below the threshold
B2 | below the threshold
B3 | below the threshold

What follows are binders tested against FRMPD2_1, Q68DX3 (assay: holdup assay). Details: plain residues with an end cap or a label only (N-terminal biotin on a linker: ado-ado).
Chain of FRMPD2_1, Q68DX3 (Q68DX3 770-861): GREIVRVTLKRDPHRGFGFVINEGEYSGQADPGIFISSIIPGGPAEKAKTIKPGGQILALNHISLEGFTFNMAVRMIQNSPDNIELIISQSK
Design: key: below the threshold = too weak to quantify, mostly under pKd 3.1 to 4

Binder | pKd
B1 | 3.6
B2 | below the threshold
B3 | below the threshold
